The target in assay [1] is T1, 인간 DLL4 단백질 세포외 도메인 (R&D Systems Cat: 1506-D4/CF) (human, UniProt Q9NR61 27-529).
T1 construct: extracellular domain; Bought protein; also called hDLL4-His; human DLL4; not shown: His tag (hDLL4-His)
Kind of assay: SPR (BIACORE T200), DLL4 coated on the chip, antibody injected.

For assay [2], the target named is T1, 인간 DLL4 단백질 세포외 도메인 (R&D Systems Cat: …). Kind of assay: competition ELISA: antibody (2 pM-35 nM) premixed with DLL4 antigen (800 ng/ml), added to coated hNotch-1-hFc; bound DLL4 detected with an HRP anti-His reagent. On the technique in general: An ELISA detects its analyte on a solid surface through an enzyme-linked reagent.

T1 sequence (Q9NR61 27-529): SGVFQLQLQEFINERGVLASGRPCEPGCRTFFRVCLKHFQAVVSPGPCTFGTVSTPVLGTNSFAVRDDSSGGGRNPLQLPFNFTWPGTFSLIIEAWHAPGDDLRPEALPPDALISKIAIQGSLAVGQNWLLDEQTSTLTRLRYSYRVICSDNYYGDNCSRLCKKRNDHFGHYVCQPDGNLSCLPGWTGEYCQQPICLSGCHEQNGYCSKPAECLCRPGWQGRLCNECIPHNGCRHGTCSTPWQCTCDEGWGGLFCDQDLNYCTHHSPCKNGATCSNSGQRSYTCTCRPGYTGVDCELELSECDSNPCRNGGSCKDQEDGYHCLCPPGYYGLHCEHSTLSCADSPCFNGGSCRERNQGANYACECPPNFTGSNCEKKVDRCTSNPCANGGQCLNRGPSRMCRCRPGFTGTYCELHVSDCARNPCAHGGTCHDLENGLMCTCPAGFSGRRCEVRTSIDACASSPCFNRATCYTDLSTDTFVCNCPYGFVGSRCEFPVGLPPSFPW

B1: 인간 단일클론항체 mh2F (항 DLL4 항체) (antibody, V domains shown)
VH: QVQLVQSGAEVKKPGASVKVSCKASGYTFTSYYLHWVRQAPGQGLEWMGIINPSGGSTSFAQKFQGRVTMTRDTSTSTVYMELSSLRSEDTAVYYCARDSAGGTLDVWGQGTMITVSS
VL: SYELTQPPSVSVAPGKTARITCGGNKIGNKGVHWYQQKPGQAPVLVIYYDKDRPSGIPERFSGSNSGNTATLTISRVEAGDEADYYCQVWDRSTVIFGGGTKLTVLG
notes: Isolated from a human scFv phage library; In ELISA it was detected with an HRP-conjugated anti-Fab reagent; also called anti-DLL4 antibody
By Kd is commonly meant the constant that tells how readily two partners part at equilibrium. As a reminder, the IC50 is the concentration that gives 50% inhibition. Higher therefore signals weaker potency in that assay. On to B1, for which binding in assay [1] was put at a Kd of 5.27 nM. Besides, the IC50 in assay [2] came out at 1.03 nM.

The values are drawn from patent publication KR20140085790A (dated 2014).
